Test results: publication PMC3459938

Tests used:
Experiment in all cases: ELISA
[1] = target: WW2-GFP (construct 7) (human) (UniProt P46934)
WW3-GFP (human) = WW3-GFP (human) (UniProt P46934)
[2] = target: WW4-GFP (construct 9) (human) (UniProt P46934)
WW_(2-3-4)-GFP (human) = WW_(2-3-4)-GFP (human) (UniProt P46934)
[3] = target: construct 2 (WW2-WW3-GFP, natural linker) (human) (UniProt P46934)
[4] = target: construct 4 (two WW domains joined by QGLQNEE, GFP fusion)
[5] = target: construct 5 (two WW domains joined by QGLQNEE, GFP fusion)

Work on “Adenovirus serotype 3 Penton-Dodecahedron (from UniProt Q2Y0H9 1-544; P04501 1-319) (complex)” yielded a percent Pt-Dd binding relative to WW (2-3-4)-GFP [1] of 13%, a Kd (WW3-GFP (human)) of 0.0824 nM and a percent Pt-Dd binding relative to WW (2-3-4)-GFP (WW3-GFP (human)) of 80%. It also gave a percent Pt-Dd binding relative to WW (2-3-4)-GFP [2] of 40%, a Kd (WW_(2-3-4)-GFP (human)) of 0.0525 nM and a decrease in affinity relative to WW (2-3-4)-GFP [3] of 20%. It also gave a decrease in affinity relative to WW (2-3-4)-GFP [4] of 20% and a decrease in affinity relative to WW (2-3-4)-GFP [5] of 20%.
